The assay has as its target unmodified R1810 peptide of the RNAP2-CTD (human). In words: MST.

Consider “recombinant PADI2 (peptidyl arginine deiminase 2) (from UniProt Q9Y2J8 1-665) (enzyme)”, for which the Kd stood at 220 nM.

One may read the Kd as the free concentration of one partner at which half of the binding sites on the other are occupied at equilibrium, for simple one-to-one binding.

(Values after doi:10.1101/216143.)
